Data from patent publication US12576050B2, “Dosage regime” (priority 2018, dated 2026).

Assay: In vitro mucolysis of patient sputum
Conditions: very thick/purulent sputum, patient already on Pulmozyme
Procedure: Patient had very thick/purulent sputum. The sputum from this patient was responsive to 5% cysteamine DPI formulation. Addition of DNAse I (Pulmozyme) at physiological concentration is having no effect, but this patient is already on Pulmozyme and recently had the dose tripled. The patient's sputum responded to in vitro tests with cysteamine (see FIG. 7). The sputum response was conducted in accordance with the general method outlined in EBioMedicine 2 (2015) 1507-1512 “Cysteamine as a Future Intervention in Cystic Fibrosis Against Current and Emerging Pathogens: A Patient-based ex vivo Study Confirming its Antimicrobial and Mucoactive Potential in Sputum”, Graham Devereux et al.

B1: DNAse I (Pulmozyme): DNAse I (Pulmozyme) added at physiological concentration to sputum (protein, UniProt P24855 23-282, looked up)
Deoxyribonuclease-1: LKIAAFNIQTFGETKMSNATLVSYIVQILSRYDIALVQEVRDSHLTAVGKLLDNLNQDAPDTYHYVVSEPLGRNSYKERYLFVYRPDQVSAVDSYYYDDGCEPCGNDTFNREPAIVRFFSRFTEVREFAIVPLHAAPGDAVAEIDALYDVYLDVQEKWGLEDVMLMGDFNAGCSYVRPSQWSSIRLWTSPTFQWLIPDSADTTATPTHCAYDRIVVAGMLLRGAVVPDSALPFNFQAAYGLSDQLAQAISDHYPVEVMLK
For B1, which “Response of patient sputum (mucolysis)” value is on record?
Its value is “no effect”.
